In CN108218984A (ZHUHAI TRINOMAB BIOTECHNOLOGY CO LTD; GUANGZHOU TAINUODI …, dated 2018) one finds Kd, koff and kon data, which are given here for 1 molecule.

In the assay the target is 破伤风标准毒素 (破伤风毒素蛋白) (Clostridium tetani, UniProt P04958 2-1315).

As usually defined, the Kd is the free concentration of one partner at which half of the binding sites on the other are occupied at equilibrium, for simple one-to-one binding. By koff is commonly meant the rate constant with which the complex falls apart. Read a high koff as fast dissociation. As a reminder, the kon is a measure of how fast the partners come together. Read a low kon as slow association.

破伤风标准毒素 (破伤风毒素蛋白), sequence (P04958 2-457 limits assumed, chain 1 of 2): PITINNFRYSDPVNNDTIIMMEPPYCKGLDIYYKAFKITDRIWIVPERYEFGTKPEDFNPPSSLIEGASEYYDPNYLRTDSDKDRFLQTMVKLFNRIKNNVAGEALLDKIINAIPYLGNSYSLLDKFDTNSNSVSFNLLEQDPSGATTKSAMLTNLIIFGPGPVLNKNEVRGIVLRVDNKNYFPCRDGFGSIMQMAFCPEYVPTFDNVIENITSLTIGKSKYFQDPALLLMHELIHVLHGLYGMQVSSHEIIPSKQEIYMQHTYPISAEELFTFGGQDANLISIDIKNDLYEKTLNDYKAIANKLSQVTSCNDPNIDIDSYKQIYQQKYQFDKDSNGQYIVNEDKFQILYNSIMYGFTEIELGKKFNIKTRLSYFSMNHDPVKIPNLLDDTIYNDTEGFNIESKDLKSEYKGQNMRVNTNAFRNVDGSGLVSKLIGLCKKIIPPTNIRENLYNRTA
破伤风标准毒素 (破伤风毒素蛋白), sequence (P04958 458-1315 limits assumed, chain 2 of 2): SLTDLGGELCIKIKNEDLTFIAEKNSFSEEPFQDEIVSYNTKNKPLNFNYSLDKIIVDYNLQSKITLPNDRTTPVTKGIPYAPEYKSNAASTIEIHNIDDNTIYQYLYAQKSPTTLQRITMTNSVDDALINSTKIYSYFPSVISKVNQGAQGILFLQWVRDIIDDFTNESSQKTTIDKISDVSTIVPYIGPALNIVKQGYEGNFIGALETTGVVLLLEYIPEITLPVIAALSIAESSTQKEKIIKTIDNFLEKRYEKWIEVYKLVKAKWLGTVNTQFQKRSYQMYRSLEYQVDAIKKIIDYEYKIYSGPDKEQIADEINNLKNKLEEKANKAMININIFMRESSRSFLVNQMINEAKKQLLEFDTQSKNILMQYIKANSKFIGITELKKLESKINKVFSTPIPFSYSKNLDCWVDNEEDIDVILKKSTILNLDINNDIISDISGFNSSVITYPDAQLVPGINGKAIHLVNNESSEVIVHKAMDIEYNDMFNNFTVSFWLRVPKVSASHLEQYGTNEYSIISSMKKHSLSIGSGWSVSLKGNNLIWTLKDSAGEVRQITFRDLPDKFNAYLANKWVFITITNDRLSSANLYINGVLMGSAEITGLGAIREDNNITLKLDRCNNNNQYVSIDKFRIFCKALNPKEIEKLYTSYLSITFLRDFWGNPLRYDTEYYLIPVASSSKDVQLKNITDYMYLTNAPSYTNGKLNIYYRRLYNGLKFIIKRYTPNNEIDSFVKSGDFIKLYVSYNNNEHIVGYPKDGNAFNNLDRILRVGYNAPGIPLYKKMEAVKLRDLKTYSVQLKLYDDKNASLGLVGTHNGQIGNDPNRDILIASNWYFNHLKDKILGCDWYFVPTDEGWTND

B1: TRN0011抗体 (全人源抗破伤风毒素中和抗体) (antibody, V domains shown)
VH: QVQLQESGAGLVKPSETLSLTCGVAGGPFTGSYLSWIRQPPGKGLEWIGEVSQSGSTSYNPSLKSRVTISVDTSKSQFSLKLSSVTAADTAVYYCARLTKHYINSAYWGQGTLVTVSS
VL: DIQMTQSPSILSASVGDRVTITCRASQIIGSWLAWYQQKPGKAPTLVIYKASRLDSGVPSRFSGTESGTEFTLTISSLQPDDFATYYCQQYNSYPYTFGQGTKLEIK
Take B1: the Kd amounted to 0.905 nM, the koff was 3.87e-05 s⁻¹ and the kon was determined as 42700 M⁻¹ s⁻¹.
